Molecular target: hRAGE (human, UniProt Q15109 23-342, limits assumed)
Experiment: competition ELISA, hRAGE-S100B interaction

Chain of hRAGE (Q15109 23-342 limits assumed): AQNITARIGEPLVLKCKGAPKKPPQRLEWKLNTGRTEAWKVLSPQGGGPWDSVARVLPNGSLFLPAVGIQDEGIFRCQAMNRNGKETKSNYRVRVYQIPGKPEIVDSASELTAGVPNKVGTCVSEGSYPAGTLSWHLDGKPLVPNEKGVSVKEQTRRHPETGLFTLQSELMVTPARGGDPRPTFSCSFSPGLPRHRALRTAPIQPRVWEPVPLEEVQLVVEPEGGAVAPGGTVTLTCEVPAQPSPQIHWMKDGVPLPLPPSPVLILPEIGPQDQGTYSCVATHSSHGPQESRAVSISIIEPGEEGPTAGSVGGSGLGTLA

- IC50: 0.72 nM
B1: 158 RAGE-1 (antibody, V domains shown)
VH: QIQLVQSGPELKKPGETVKISCKASGYTFTDYSMHWVKQAPGKGLKWMGWINTETGEPTYADDFKGRFAFSLETSASTAYLLINNLKTEDTATYFCARDYLYYYAMDYWGQGTSVTVSS
VL: DVVLTQTPLSLPVNIGDQASISCKSTKSLLNSDGFTYLDWYLQKPGQSPQLLIYLVSNRFSGVPDRFSGSGSGTDFTLKISRVEAEDLGVYYCFQSNYLPLTFGGGTKVEIK
notes: Anti-RAGE monoclonal antibody (hybridoma; captured by anti-mouse Fc in Biacore); also called LP08105

From EP2308896A1 (Sanofi-Aventis, dated 2011)
